Target: T1, GST-PKM2 (GST fusion PKM2) (UniProt P14618 1-531)
T1 construct: Pyruvate kinase M2 (PKM2); also called recombinant GST- PKM2; source: E. coli BL21 (DE3), purified (Glutathione-Sepharose 4B)
Test: pull-down; GST-PKM2 on glutathione-sepharose beads incubated with His-HDAC8 at 4 °C (overnight in the methods, 3 h in the legend); washed 5 times with PBST; SDS-PAGE and Coomassie Blue staining; GST-vector as control
Conditions: both partners purified

T1 sequence (P14618 whole entry, the tested form may be a part): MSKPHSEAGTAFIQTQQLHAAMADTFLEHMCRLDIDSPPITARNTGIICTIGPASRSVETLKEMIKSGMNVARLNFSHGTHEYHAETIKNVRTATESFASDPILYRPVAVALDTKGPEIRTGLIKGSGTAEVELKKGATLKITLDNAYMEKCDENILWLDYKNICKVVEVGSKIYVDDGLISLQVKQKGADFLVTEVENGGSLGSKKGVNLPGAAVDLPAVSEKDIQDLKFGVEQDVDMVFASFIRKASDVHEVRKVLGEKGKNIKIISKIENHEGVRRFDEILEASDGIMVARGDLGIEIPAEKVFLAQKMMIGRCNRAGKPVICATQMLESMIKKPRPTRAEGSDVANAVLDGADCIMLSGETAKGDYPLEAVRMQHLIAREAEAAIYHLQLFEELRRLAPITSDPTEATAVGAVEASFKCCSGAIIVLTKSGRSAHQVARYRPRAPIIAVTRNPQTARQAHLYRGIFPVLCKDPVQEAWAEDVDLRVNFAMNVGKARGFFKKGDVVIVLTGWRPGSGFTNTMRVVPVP

B1: His-HDAC8 (His fusion HDAC8) (enzyme, UniProt Q9BY41 1-377, looked up)
chain: MEEPEEPADSGQSLVPVYIYSPEYVSMCDSLAKIPKRASMVHSLIEAYALHKQMRIVKPKVASMEEMATFHTDAYLQHLQKVSQEGDDDHPDSIEYGLGYDCPATEGIFDYAAAIGGATITAAQCLIDGMCKVAINWSGGWHHAKKDEASGFCYLNDAVLGILRLRRKFERILYVDLDLHHGDGVEDAFSFTSKVMTVSLHKFSPGFFPGTGDVSDVGLGKGRYYSVNVPIQDGIQDEKYYQICESVLKEVYQAFNPKAVVLQLGADTIAGDPMCSFNMTPVGIGKCLKYILQWQLATLILGGGGYNLANTARCWTYLTGVILGKTLSSEIPDHEFFTAYGPDYVLEITPSCRPDRNEPHRIQQILNYIKGNLKHVV
notes: Histone deacetylase 8 (HDAC8)
Does B1 bind?
Result: binds

Reference: PMC7719180, “HDAC8-dependent deacetylation of PKM2 directs nuclear localization and glycolysis to promote proliferation in hepatocellular carcinoma” (Cell Death & Disease, 2020)
